Patent publication US20050287597

What follows are proteins tested against synthetic Tat (72 amino acids) carrying an N-terminal biotin label and an acetyl group at position 50.

Protein | in vitro Tat deacetylation (western blot with antibodies specific for acetylated lysine 50 in Tat)
FLAG-tagged human SIRT1 (C-terminal FLAG tag) (protein) MADEAALALQPGGSPSAAGADREAASSPAGEPLRKRPRRDGPGLERSPGEPGGAAPEREVPAAARGCPGAAAAALWREAEAEAAAAGGEQEAQATAAAGEGDNGPGLQGPSREPPLADNLYDEDDDDEGEEEEEAAAAAIGYRDNLLFGDEIITNGFHSCESDEEDRASHASSSDWTPRPRIGPYTFVQQHLMIGTDPRTILKDLLPETIPPPELDDMTLWQIVINILSEPPKRKKRKDINTIEDAVKLLQECKKIIVLTGAGVSVSCGIPDFRSRDGIYARLAVDFPDLPDPQAMFDIEYFRKDPRPFFKFAKEIYPGQFQPSLCHKFIALSDKEGKLLRNYTQNIDTLEQVAGIQRIIQCHGSFATASCLICKYKVDCEAVRGDIFNQVVPRCPRCPADEPLAIMKPEIVFFGENLPEQFHRAMKYDKDEVDLLIVIGSSLKVRPVALIPSSIPHEVPQILINREPLPHLHFDVELLGDCDVIINELCHRLGGEYAKLCCNPVKLSEITEKPPRTQKELAYLSELPPTPLHVSEDSSSPERTSPPDSSVIVTLLDQAAKSNDDLDVSESKGCMEEKPQEVQTSRNVESIAEQMENPDLKNVGSSTGEKNERTSVAGTVRKCWPNRVAKEQISRRLDGNQYLFLPPNRYIFHGAEVYSDSEDDVLSSSSCGSNSDSGTCQSPSLEEPMEDESEIEEFYNGLEDEPDVPERAGGAGFGTDGDDQEAINEAISVKQEVTDMNYPSNKS | resulted in deacetylation of Tat lysine 50
FLAG-tagged human SIRT3 (C-terminal FLAG tag) (protein) MAFWGWRAAAALRLWGRVVERVEAGGGVGPFQACGCRLVLGGRDDVSAGLRGSHGARGEPLDPARPLQRPPRPEVPRAFRRQPRAAAPSFFFSSIKGGRRSISFSVGASSVVGSGGSSDKGKLSLQDVAELIRARACQRVVVMVGAGISTPSGIPDFRSPGSGLYSNLQQYDLPYPEAIFELPFFFHNPKPFFTLAKELYPGNYKPNVTHYFLRLLHDKGLLLRLYTQNIDGLERVSGIPASKLVEAHGTFASATCTVCQRPFPGEDIRADVMADRVPRCPVCTGVVKPDIVFFGEPLPQRFLLHVVDFPMADLLLILGTSLEVEPFASLTEAVRSSVPRLLINRDLVGPLAWHPRSRDVAQLGDVVHGVESLVELLGWTEEMRDLVQRETGKLDGPDK | resulted in deacetylation of Tat lysine 50
FLAG-tagged human SIRT2 (C-terminal FLAG tag) (protein) MAEPDPSHPLETQAGKVQEAQDSDSDSEGGAAGGEADMDFLRNLFSQTLSLGSQKERLLDELTLEGVARYMQSERCRRVICLVGAGISTSAGIPDFRSPSTGLYDNLEKYHLPYPEAIFEISYFKKHPEPFFALAKELYPGQFKPTICHYFMRLLKDKGLLLRCYTQNIDTLERIAGLEQEDLVEAHGTFYTSHCVSASCRHEYPLSWMKEKIFSEVTPKCEDCQSLVKPDIVFFGESLPARFFSCMQSDFLKVDLLLVMGTSLQVQPFASLISKAPLSTPRLLINKEKAGQSDPFLGMIMGLGGGMDFDSKKAYRDVAWLGECDQGCLALAELLGWKKELEDLVRREHASIDAQSGAGVPNPSTSASPKKSPPPAKDEARTTEREKPQ | resulted in deacetylation of Tat lysine 50
